Measurements: paper PMC11886768 (2025)

B1: CRY1 (third protein in the mammalian three-hybrid assay) [Arabidopsis] / E-COP1 [Arabidopsis] (parent complex)
chain 1: MSGSVSGCGSGGCSIVWFRRDLRVEDNPALAAAVRAGPVIALFVWAPEEEGHYHPGRVSRWWLKNSLAQLDSSLRSLGTCLITKRSTDSVASLLDVVKSTGASQIFFNHLYDPLSLVRDHRAKDVLTAQGIAVRSFNADLLYEPWEVTDELGRPFSMFAAFWERCLSMPYDPESPLLPPKKIISGDVSKCVADPLVFEDDSEKGSNALLARAWSPGWSNGDKALTTFINGPLLEYSKNRRKADSATTSFLSPHLHFGEVSVRKVFHLVRIKQVAWANEGNEAGEESVNLFLKSIGLREYSRYISFNHPYSHERPLLGHLKFFPWAVDENYFKAWRQGRTGYPLVDAGMRELWATGWLHDRIRVVVSSFFVKVLQLPWRWGMKYFWDTLLDADLESDALGWQYITGTLPDSREFDRIDNPQFEGYKFDPNGEYVRRWLPELSRLPTDWIHHPWNAPESVLQAAGIELGSNYPLPIVGLDEAKARLHEALSQMWQLEAASRAAIENGSEEGLGDSAEVEEAPIEFPRDITMEETEPTRLNPNRRYEDQMVPSITSSLIRPEEDEESSLNLRNSVGDSRAEVPRNMVNTNQAQQRRAEPASNQVTAMIPEFNIRIVAESTEDSTAESSSSGRRERSGGIVPEWSPGYSEQFPSEENGIGGGSTTSSYLQNHHEILNWRRLSQTG
chain 2: MEEISTDPVVPAVKPDPRTSSVGEGANRHENDDGGSGGSEIGAPDLDKDLLCPICMQIIKDAFLTACGHSFCYMCIITHLRNKSDCPCCSQHLTNNQLYPNFLLDKLLKKTSARHVSKTASPLDQFREALQRGCDVSIKEVDNLLTLLAERKRKMEQEEAERNMQILLDFLHCLRKQKVDELNEVQTDLQYIKEDINAVERHRIDLYRARDRYSVKLRMLGDDPSTRNAWPHEKNQIGFNSNSLSIRGGNFVGNYQNKKVEGKAQGSSHGLPKKDALSGSDSQSLNQSTVSMARKKRIHAQFNDLQECYLQKRRQLADQPNSKQENDKSVVRREGYSNGLADFQSVLTTFTRYSRLRVIAEIRHGDIFHSANIVSSIEFDRDDELFATAGVSRCIKVFDFSSVVNEPADMQCPIVEMSTRSKLSCLSWNKHEKNHIASSDYEGIVTVWDVTTRQSLMEYEEHEKRAWSVDFSRTEPSMLVSGSDDCKVKVWCTRQEASVINIDMKANICCVKYNPGSSNYIAVGSADHHIHYYDLRNISQPLHVFSGHKKAVSYVKFLSNNELASASTDSTLRLWDVKDNLPVRTFRGHTNEKNFVGLTVNSEYLACGSETNEVYVYHKEITRPVTSHRFGSPDMDDAEEEAGSYFISAVCWKSDSPTMLTANSQGTIKVLVLAA

Variants of: B1
Assay: luciferase complementation imaging (LCI); transfected N. benthamiana leaves, n = 14, CCD camera; value is the mean ('+'); median about 0.44, box about 0.22-0.68; parent: 1; read off a plot

| ratio to parent | Variant |
| --- | --- |
| ~0.43 | chain 1 V548A, chain 1 P549A |
